Test results: patent US20090232801A1

Tests used:
Aβ(1-42) fibrils (human) = test: fibril pull-down: antibody incubated 20 h at 37 °C with Aβ(1-42) fibrils, centrifuged; SDS-PAGE densitometry of the heavy chain in pellet and supernatant
[1] = molecular target: Aβ(1-42) globulomer (human); test: dot blot densitometry; reference: Aβ(1-42) monomer
[2] = molecular target: Aβ(1-42) globulomer (human); test: dot blot, 10 pmol antigen on nitrocellulose, 0.2 µg/ml antibody, densitometry
[3] = molecular target: Aβ(1-42) monomer, HFIP pretreated (human); test: as above
Aβ(1-40) monomer (human) = test: as above
[4] = molecular target: Aβ(1-42) globulomer (human); test: dot blot densitometry; reference: Aβ(1-40) monomer

Sequence of Aβ(1-42) globulomer (human) (peptide, as listed by the source): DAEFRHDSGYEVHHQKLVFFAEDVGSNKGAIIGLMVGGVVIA
Sequence of Aβ(1-40) monomer (human) (peptide, as listed by the source): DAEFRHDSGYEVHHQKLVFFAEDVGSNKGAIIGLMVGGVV

Row | Substance | Fibril bound Ab fraction (Aβ(1-42) fibrils (human)) [%] | Ratio RD Aβ(1-42) globulomer/RD Aβ(1-42) monomer [1] | Reflective Density (RD) [10 pmol] [2] [RD] | Reflective Density (RD) [10 pmol] [3] [RD] | Reflective Density (RD) [10 pmol] (Aβ(1-40) monomer (human)) [RD] | Ratio RD Aβ(1-42) globulomer/RD Aβ(1-40) monomer [4]
1 | mMAb 6E10 (Signet Inc. Cat.#9320) (antibody) | 91 | – | – | – | – | –
2 | mouse monoclonal antibody 4G8 | – | 0.42 | 1.5 | 3.5 | 0.15 | 10
3 | unspecific antibody IgG2a | 9 | – | – | – | – | –
